Key:
[1] = target: T1, His-tagged DNMT1 (Homo sapiens, UniProt P26358 1-1616); experiment: MST; BLI: AR2G tips, protein amine-coupled, assay buffer not fully stated (PBS pre-hydration); MST: 50 nM RED-tris-NTA labelled stock in 25 mM Hepes pH 7.5, 250 mM NaCl, 0.05% Tween 20 / PBS-T mix, 25 C; EMSA: 5 mM Tris pH 7.4, 5 mM MgCl2, 1 mM DTT, 3% glycerol, 100 mM NaCl, RT; ELONA: PBS, RT; pulldown: 10 mM Tris pH 7.5, 200 nM (so in the source) NaCl, 5 mM EDTA, 0.1% Triton X-100; settings: protein: commercial; tags: His6; hairpin (predicted)
[2] = target: T2, DNMT1 (purified, Active Motif) (UniProt P26358 1-1616); experiment: BLI; BLI: AR2G tips, protein amine-coupled, assay buffer not fully stated (PBS pre-hydration); MST: 50 nM RED-tris-NTA labelled stock in 25 mM Hepes pH 7.5, 250 mM NaCl, 0.05% Tween 20 / PBS-T mix, 25 C; EMSA: 5 mM Tris pH 7.4, 5 mM MgCl2, 1 mM DTT, 3% glycerol, 100 mM NaCl, RT; ELONA: PBS, RT; pulldown: 10 mM Tris pH 7.5, 200 nM (so in the source) NaCl, 5 mM EDTA, 0.1% Triton X-100; settings: protein: commercial; for Kd: hairpin (predicted)
[3] = target: T1, His-tagged DNMT1; experiment: ELONA; BLI: AR2G tips, protein amine-coupled, assay buffer not fully stated (PBS pre-hydration); MST: 50 nM RED-tris-NTA labelled stock in 25 mM Hepes pH 7.5, 250 mM NaCl, 0.05% Tween 20 / PBS-T mix, 25 C; EMSA: 5 mM Tris pH 7.4, 5 mM MgCl2, 1 mM DTT, 3% glycerol, 100 mM NaCl, RT; ELONA: PBS, RT; pulldown: 10 mM Tris pH 7.5, 200 nM (so in the source) NaCl, 5 mM EDTA, 0.1% Triton X-100; settings: protein: commercial; tags: His6; label: 3' biotin; hairpin (predicted)
[4] = target: T2, DNMT1 (purified, Active Motif); experiment: BLI; no binding detected below 100 nM RNA; BLI: AR2G tips, protein amine-coupled, assay buffer not fully stated (PBS pre-hydration); MST: 50 nM RED-tris-NTA labelled stock in 25 mM Hepes pH 7.5, 250 mM NaCl, 0.05% Tween 20 / PBS-T mix, 25 C; EMSA: 5 mM Tris pH 7.4, 5 mM MgCl2, 1 mM DTT, 3% glycerol, 100 mM NaCl, RT; ELONA: PBS, RT; pulldown: 10 mM Tris pH 7.5, 200 nM (so in the source) NaCl, 5 mM EDTA, 0.1% Triton X-100; settings: protein: commercial; hairpin (predicted)
[5] = target: T1, His-tagged DNMT1; experiment: MST; up to 1.5 uM RNA; BLI: AR2G tips, protein amine-coupled, assay buffer not fully stated (PBS pre-hydration); MST: 50 nM RED-tris-NTA labelled stock in 25 mM Hepes pH 7.5, 250 mM NaCl, 0.05% Tween 20 / PBS-T mix, 25 C; EMSA: 5 mM Tris pH 7.4, 5 mM MgCl2, 1 mM DTT, 3% glycerol, 100 mM NaCl, RT; ELONA: PBS, RT; pulldown: 10 mM Tris pH 7.5, 200 nM (so in the source) NaCl, 5 mM EDTA, 0.1% Triton X-100; settings: protein: commercial; tags: His6; unable to form stem-loop

T2 sequence (P26358 whole entry): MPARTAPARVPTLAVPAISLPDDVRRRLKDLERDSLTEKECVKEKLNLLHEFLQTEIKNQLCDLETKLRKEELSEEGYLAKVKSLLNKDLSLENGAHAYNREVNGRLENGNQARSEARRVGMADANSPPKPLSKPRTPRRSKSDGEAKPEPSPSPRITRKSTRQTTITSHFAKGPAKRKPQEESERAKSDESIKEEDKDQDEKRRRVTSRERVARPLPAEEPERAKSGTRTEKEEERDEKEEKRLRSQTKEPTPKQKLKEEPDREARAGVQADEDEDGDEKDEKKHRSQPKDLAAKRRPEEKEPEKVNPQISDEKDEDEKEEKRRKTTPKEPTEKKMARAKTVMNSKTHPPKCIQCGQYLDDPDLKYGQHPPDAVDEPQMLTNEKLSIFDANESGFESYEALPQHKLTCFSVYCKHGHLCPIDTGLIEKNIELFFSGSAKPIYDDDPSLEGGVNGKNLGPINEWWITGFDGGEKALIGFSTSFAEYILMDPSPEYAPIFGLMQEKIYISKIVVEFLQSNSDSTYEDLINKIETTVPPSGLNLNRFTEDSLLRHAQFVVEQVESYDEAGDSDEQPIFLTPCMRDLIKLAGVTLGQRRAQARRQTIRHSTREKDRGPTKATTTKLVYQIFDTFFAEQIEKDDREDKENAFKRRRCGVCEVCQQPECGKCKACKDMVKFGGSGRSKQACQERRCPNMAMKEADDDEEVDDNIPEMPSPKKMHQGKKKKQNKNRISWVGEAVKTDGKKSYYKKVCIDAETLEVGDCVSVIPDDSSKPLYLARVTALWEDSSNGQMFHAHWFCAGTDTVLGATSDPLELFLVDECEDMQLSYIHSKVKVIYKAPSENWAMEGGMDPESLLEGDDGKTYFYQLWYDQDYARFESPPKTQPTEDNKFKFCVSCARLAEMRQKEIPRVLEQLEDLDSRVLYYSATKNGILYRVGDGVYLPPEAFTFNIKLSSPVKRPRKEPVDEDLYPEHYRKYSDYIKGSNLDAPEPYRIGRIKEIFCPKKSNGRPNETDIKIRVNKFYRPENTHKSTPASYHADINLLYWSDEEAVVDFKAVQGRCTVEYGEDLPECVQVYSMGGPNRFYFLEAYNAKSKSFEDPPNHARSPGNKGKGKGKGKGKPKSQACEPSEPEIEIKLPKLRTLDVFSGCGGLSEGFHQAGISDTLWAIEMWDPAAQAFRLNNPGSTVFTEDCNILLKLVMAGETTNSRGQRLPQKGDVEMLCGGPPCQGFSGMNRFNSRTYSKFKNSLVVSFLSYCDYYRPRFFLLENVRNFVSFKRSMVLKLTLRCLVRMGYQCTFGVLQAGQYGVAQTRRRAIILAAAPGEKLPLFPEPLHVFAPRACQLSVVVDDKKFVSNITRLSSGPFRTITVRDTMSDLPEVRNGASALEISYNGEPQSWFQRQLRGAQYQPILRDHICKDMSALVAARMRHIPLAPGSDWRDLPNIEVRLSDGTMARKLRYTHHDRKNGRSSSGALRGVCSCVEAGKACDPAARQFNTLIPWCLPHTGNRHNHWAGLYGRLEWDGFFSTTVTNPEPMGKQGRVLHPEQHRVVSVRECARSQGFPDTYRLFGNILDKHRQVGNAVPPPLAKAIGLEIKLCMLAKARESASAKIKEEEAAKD
T1 sequence (P26358 whole entry): as above

Row | Binder | Kd [1] [µM] | Kd [2] [µM] | binding result [3] | other results
1 | UUACUGGGCUGAGGUAAUGGCGAGG (structured_RNA, 2'-F pyrimidines (all C and U)) [Ce-10-2 sh] | 0.106 ± 0.042 | 0.0664 ± 0.024 | – | –
2 | AGGUAAUGGCGAGGCUUCUUAUCUG (structured_RNA, 2'-F pyrimidines (all C and U)) [Ce-10-1 sh biotin] | – | – | binds | –
3 | CUGAGGCCUAACGAAGGCUUCU (structured_RNA, 2'-F pyrimidines (all C and U)) [Ce-49 sh] | 0.119 ± 0.034 | 0.0792 ± 0.0237 | – | –
4 | CUGAGGCCUUGGCGAGGCUUCU (structured_RNA, 2'-F pyrimidines (all C and U)) [DNMT1 bait (2'F-Py R5)] | 0.44 ± 0.14 | – | – | Kd [4]: 0.6 ± 0.1 µM
5 | CAGAGGACAAGGCGAGGCAACA (ssRNA, 2'-F pyrimidines (all C and U)) [mutR5] | – | – | – | binding result [5]: no binding; binding result ([2]; unable to form stem-loop): no binding
6 | UGGGCUGAGCUCAUGGCGAGGCUUC (structured_RNA, 2'-F pyrimidines (all C and U)) [Ce-9 sh biotin] | – | – | binds | –

From publication PMC9823104, “Targeted systematic evolution of an RNA platform neutralizing DNMT1 function and controlling DNA methylation”
